Results as given in publication PMC5118228 (EJNMMI Research, 2016).

Test: in vivo
Conditions: male, athymic nu/nu, mouse, iv, total radioactivity
[1] = 0.03 nmol, uptake in Red blood cell
[2] = 0.1 nmol, uptake in Red blood cell

Structure (SMILES): C[C@@H](O)[C@H](NC(=O)[C@@H]1CSSC[C@H](NC(=O)[C@@H](Cc2ccccc2)NC(=O)CN2CCN(CC(=O)O)CCN(CC(=O)O)CCN(CC(=O)O)CC2)C(=O)N[C@@H](Cc2ccc(O)cc2)C(=O)N[C@H](Cc2c[nH]c3ccccc23)C(=O)N[C@@H](CCCCN)C(=O)N[C@@H]([C@@H](C)O)C(=O)N1)C(=O)O [^111In-DOTATATE, metal not drawn]
- tissue uptake at 10 min (0.03 nmol, uptake in Adrenals): 3.4 ± 2.3 %ID/g
- tissue uptake at 0.5 h (0.03 nmol, uptake in Adrenals): 4.7 ± 4.4 %ID/g
- tissue uptake at 1 h (0.03 nmol, uptake in Adrenals): 4.6 ± 5.6 %ID/g
- tissue uptake at 0.05 h (0.03 nmol, uptake in Kidney): 19.2 ± 8.4 %ID/g
- tissue uptake at 10 min (0.03 nmol, uptake in Kidney): 16 ± 4.1 %ID/g
- tissue uptake at 0.5 h (0.03 nmol, uptake in Kidney): 14 ± 4.1 %ID/g
- tissue uptake at 1 h (0.03 nmol, uptake in Kidney): 12.3 ± 3.7 %ID/g
- tissue uptake at 0.05 h (0.03 nmol, uptake in Muscles): 1.2 ± 0.7 %ID/g
- tissue uptake at 10 min (0.03 nmol, uptake in Muscles): 0.9 ± 0.3 %ID/g
- tissue uptake at 0.5 h (0.03 nmol, uptake in Muscles): 0.3 ± 0.1 %ID/g
- tissue uptake at 1 h (0.03 nmol, uptake in Muscles): 0.07 %ID/g
- tissue uptake at 0.05 h (0.03 nmol, uptake in Pancreas): 6 ± 1.5 %ID/g
- tissue uptake at 10 min (0.03 nmol, uptake in Pancreas): 1.6 ± 1.4 %ID/g
- tissue uptake at 0.5 h (0.03 nmol, uptake in Pancreas): 4.7 ± 2.7 %ID/g
- tissue uptake at 1 h (0.03 nmol, uptake in Pancreas): 9.2 ± 1.9 %ID/g
- tissue uptake at 0.05 h (0.03 nmol, uptake in Pituitary): 1 ± 1.7 %ID/g
- tissue uptake at 10 min (0.03 nmol, uptake in Pituitary): 0.2 ± 0.2 %ID/g
- tissue uptake at 0.5 h (0.03 nmol, uptake in Pituitary): 0.5 ± 0.8 %ID/g
- tissue uptake at 1 h (0.03 nmol, uptake in Pituitary): < 0.05 %ID/g
- tissue uptake at 0.05 h (0.03 nmol, uptake in Plasma): 13.3 ± 1.6 %ID/g
- tissue uptake at 0.5 h (0.03 nmol, uptake in Plasma): 3.2 ± 1 %ID/g
- tissue uptake at 1 h (0.03 nmol, uptake in Plasma): 0.8 ± 0.1 %ID/g
- tissue uptake at 0.05 h [1]: 3.5 ± 2.5 %ID/g
- tissue uptake at 0.5 h [1]: 0.6 ± 0.2 %ID/g
- tissue uptake at 1 h [1]: 0.3 ± 0.08 %ID/g
- tissue uptake at 0.05 h (0.03 nmol, uptake in Stomach): 5.6 ± 0.7 %ID/g
- tissue uptake at 10 min (0.03 nmol, uptake in Stomach): 7.9 ± 2.2 %ID/g
- tissue uptake at 0.5 h (0.03 nmol, uptake in Stomach): 8.1 ± 1.3 %ID/g
- tissue uptake at 1 h (0.03 nmol, uptake in Stomach): 7.6 ± 1.1 %ID/g
- tissue uptake at 0.05 h (0.03 nmol, uptake in Tumor): 6.9 ± 3.6 %ID/g
- tissue uptake at 10 min (0.03 nmol, uptake in Tumor): 10.7 ± 2.5 %ID/g
- tissue uptake at 0.5 h (0.03 nmol, uptake in Tumor): 15.1 ± 7.5 %ID/g
- tissue uptake at 1 h (0.03 nmol, uptake in Tumor): 12.8 ± 6.7 %ID/g
- tissue uptake at 1 h (0.1 nmol, uptake in Adrenals): 1.3 ± 0.2 %ID/g
- tissue uptake at 0.05 h (0.1 nmol, uptake in Kidney): 21.6 ± 3.9 %ID/g
- tissue uptake at 10 min (0.1 nmol, uptake in Kidney): 15.6 ± 3.1 %ID/g
- tissue uptake at 0.5 h (0.1 nmol, uptake in Kidney): 16.1 ± 5.5 %ID/g
- tissue uptake at 1 h (0.1 nmol, uptake in Kidney): 16.7 ± 8.6 %ID/g
- tissue uptake at 0.05 h (0.1 nmol, uptake in Muscles): 1.5 ± 0.6 %ID/g
- tissue uptake at 10 min (0.1 nmol, uptake in Muscles): 0.7 ± 0.2 %ID/g
- tissue uptake at 0.5 h (0.1 nmol, uptake in Muscles): 0.4 ± 0.4 %ID/g
- tissue uptake at 1 h (0.1 nmol, uptake in Muscles): 0.3 ± 0.4 %ID/g
- tissue uptake at 0.05 h (0.1 nmol, uptake in Pancreas): 11.9 ± 4 %ID/g
- tissue uptake at 10 min (0.1 nmol, uptake in Pancreas): 9.9 ± 4.2 %ID/g
- tissue uptake at 0.5 h (0.1 nmol, uptake in Pancreas): 7 ± 1.4 %ID/g
- tissue uptake at 1 h (0.1 nmol, uptake in Pancreas): 4.7 ± 0.5 %ID/g
- tissue uptake at 0.05 h (0.1 nmol, uptake in Pituitary): 0.3 ± 0.2 %ID/g
- tissue uptake at 10 min (0.1 nmol, uptake in Pituitary): 0.2 ± 0.09 %ID/g
- tissue uptake at 0.5 h (0.1 nmol, uptake in Pituitary): 0.1 ± 0.2 %ID/g
- tissue uptake at 1 h (0.1 nmol, uptake in Pituitary): < 0.05 %ID/g
- tissue uptake at 0.05 h (0.1 nmol, uptake in Plasma): 13.2 ± 1.7 %ID/g
- tissue uptake at 10 min (0.1 nmol, uptake in Plasma): 8.6 ± 1.4 %ID/g
- tissue uptake at 0.5 h (0.1 nmol, uptake in Plasma): 3.4 ± 1.7 %ID/g
- tissue uptake at 1 h (0.1 nmol, uptake in Plasma): 1 ± 0.6 %ID/g
- tissue uptake at 0.05 h [2]: 5.2 ± 0.7 %ID/g
- tissue uptake at 0.5 h [2]: 0.8 ± 0.4 %ID/g
- tissue uptake at 1 h [2]: 0.2 ± 0.1 %ID/g
- tissue uptake at 0.05 h (0.1 nmol, uptake in Stomach): 4.4 ± 1.1 %ID/g
- tissue uptake at 10 min (0.1 nmol, uptake in Stomach): 5.2 ± 1.1 %ID/g
- tissue uptake at 0.5 h (0.1 nmol, uptake in Stomach): 6.3 ± 2 %ID/g
- tissue uptake at 1 h (0.1 nmol, uptake in Stomach): 6 ± 1.8 %ID/g
- tissue uptake at 10 min (0.1 nmol, uptake in Tumor): 11.8 ± 3.6 %ID/g
- tissue uptake at 1 h (0.1 nmol, uptake in Tumor): 9.9 ± 2.6 %ID/g
- tissue uptake at 0.05 h (0.3 nmol, uptake in Adrenals): 2.3 ± 0.6 %ID/g
- tissue uptake at 10 min (0.3 nmol, uptake in Adrenals): 1.2 ± 0.4 %ID/g
- tissue uptake at 0.5 h (0.3 nmol, uptake in Adrenals): 1 ± 0.1 %ID/g
- tissue uptake at 1 h (0.3 nmol, uptake in Adrenals): 0.8 ± 0.3 %ID/g
- tissue uptake at 0.05 h (0.3 nmol, uptake in Kidney): 17.2 ± 5.4 %ID/g
- tissue uptake at 10 min (0.3 nmol, uptake in Kidney): 12.8 ± 2.2 %ID/g
- tissue uptake at 0.5 h (0.3 nmol, uptake in Kidney): 16.9 ± 6.3 %ID/g
- tissue uptake at 1 h (0.3 nmol, uptake in Kidney): 13.4 ± 2.8 %ID/g
- tissue uptake at 0.05 h (0.3 nmol, uptake in Muscles): 1.1 ± 0.1 %ID/g
- tissue uptake at 10 min (0.3 nmol, uptake in Muscles): 0.5 ± 0.1 %ID/g
- tissue uptake at 0.5 h (0.3 nmol, uptake in Muscles): 0.3 ± 0.1 %ID/g
- tissue uptake at 1 h (0.3 nmol, uptake in Muscles): < 0.05 %ID/g
- tissue uptake at 10 min (0.3 nmol, uptake in Pancreas): 3.5 ± 0.3 %ID/g
- tissue uptake at 0.5 h (0.3 nmol, uptake in Pancreas): 3.2 ± 0.4 %ID/g
- tissue uptake at 1 h (0.3 nmol, uptake in Pancreas): 3 ± 1 %ID/g
